Two molecules from publication PMC8203837, “Optogenetically-induced multimerization of the dopamine transporter increases uptake and trafficking to the plasma membrane” (The Journal of Biological Chemistry, 2021) can be followed below.

For data set [1], the target named is Cry2–mCh–DAT, optogenetic fusion chimera of cryptochrome 2 and DAT with an mCherry fluorescent reporter (Arabidopsis | not stated) (UniProt Q01959).
Data set [2] has the same target. Description: cell-surface biotinylation, SDS-PAGE and Western blot; HEK293 cells transfected with Cry2–DAT, kept in the dark (control); sulfo-NHS-SS-biotin at 4 °C, NeutrAvidin beads, 4–15% gradient gel.
Data set [3] deals with the molecule itself. Briefly: cross-linking; as a1, but cells treated with 10 μM METH for 0.5, 2, 10, 30 or 60 min before copper phenanthroline cross-linking.
Data set [4] concerns the molecule itself. Briefly: cross-linking; as a1, but cells treated with 10 μM DA for 0.5, 2, 10, 30 or 60 min before copper phenanthroline cross-linking.
Data set [5] concerns the molecule itself. Briefly: cross-linking; HEK293 cells stably expressing YFP–DAT, vehicle control; copper phenanthroline (100 μM CuSO4, 400 μM 1,10-phenanthroline) in PBS 10 min at RT, NEM quench, membrane enrichment (Mem-PER Plus), samples not heated, Western blot.

The molecule “Cry2–mCh–DAT, optogenetic fusion chimera of cryptochrome 2 and DAT with an mCherry fluorescent reporter (from UniProt Q01959 1-620)” returned an IDT307 uptake in differentiated SH-SY5Y cells expressing Cry2–DAT, blue light against no blue light in data set [1] of 2.5 fold. For the same molecule, the stoichiometry N in data set [2] is 2.

B1: YFP–DAT (dopamine transporter with N-terminal YFP) (natural protein, UniProt Q01959 1-620, looked up)
chain: MSKSKCSVGLMSSVVAPAKEPNAVGPKEVELILVKEQNGVQLTSSTLTNPRQSPVEAQDRETWGKKIDFLLSVIGFAVDLANVWRFPYLCYKNGGGAFLVPYLLFMVIAGMPLFYMELALGQFNREGAAGVWKICPILKGVGFTVILISLYVGFFYNVIIAWALHYLFSSFTTELPWIHCNNSWNSPNCSDAHPGDSSGDSSGLNDTFGTTPAAEYFERGVLHLHQSHGIDDLGPPRWQLTACLVLVIVLLYFSLWKGVKTSGKVVWITATMPYVVLTALLLRGVTLPGAIDGIRAYLSVDFYRLCEASVWIDAATQVCFSLGVGFGVLIAFSSYNKFTNNCYRDAIVTTSINSLTSFSSGFVVFSFLGYMAQKHSVPIGDVAKDGPGLIFIIYPEAIATLPLSSAWAVVFFIMLLTLGIDSAMGGMESVITGLIDEFQLLHRHRELFTLFIVLATFLLSLFCVTNGGIYVFTLLDHFAAGTSILFGVLIEAIGVAWFYGVGQFSDDIQQMTGQRPSLYWRLCWKLVSPCFLLFVVVVSIVTFRPPHYGAYIFPDWANALGWVIATSSMAMVPIYAAYKFCSLPGSFREKLAYAIAPEKDRELVDRGEVRQFTLRHWLKV
notes: dopamine transporter (DAT); also called YFPsynDAT; source: HEK293 cells stably expressing YFP–DAT, in or on cells; not shown: YFP, N-terminal, kept
On to B1, for which the figures for the “stoichiometry N” value in data set [3], in data set [4] and in data set [5] were 3, 4 and 2, respectively.
